Legend:
[1] = target: human Met-Fc chimera (human) (UniProt P08581); assay: ELISA
[2] = target: human Met receptor on cells (human) (UniProt P08581); assay: cell-based or functional assay
Sequence of human Met receptor on cells (human) (P08581 25-1390): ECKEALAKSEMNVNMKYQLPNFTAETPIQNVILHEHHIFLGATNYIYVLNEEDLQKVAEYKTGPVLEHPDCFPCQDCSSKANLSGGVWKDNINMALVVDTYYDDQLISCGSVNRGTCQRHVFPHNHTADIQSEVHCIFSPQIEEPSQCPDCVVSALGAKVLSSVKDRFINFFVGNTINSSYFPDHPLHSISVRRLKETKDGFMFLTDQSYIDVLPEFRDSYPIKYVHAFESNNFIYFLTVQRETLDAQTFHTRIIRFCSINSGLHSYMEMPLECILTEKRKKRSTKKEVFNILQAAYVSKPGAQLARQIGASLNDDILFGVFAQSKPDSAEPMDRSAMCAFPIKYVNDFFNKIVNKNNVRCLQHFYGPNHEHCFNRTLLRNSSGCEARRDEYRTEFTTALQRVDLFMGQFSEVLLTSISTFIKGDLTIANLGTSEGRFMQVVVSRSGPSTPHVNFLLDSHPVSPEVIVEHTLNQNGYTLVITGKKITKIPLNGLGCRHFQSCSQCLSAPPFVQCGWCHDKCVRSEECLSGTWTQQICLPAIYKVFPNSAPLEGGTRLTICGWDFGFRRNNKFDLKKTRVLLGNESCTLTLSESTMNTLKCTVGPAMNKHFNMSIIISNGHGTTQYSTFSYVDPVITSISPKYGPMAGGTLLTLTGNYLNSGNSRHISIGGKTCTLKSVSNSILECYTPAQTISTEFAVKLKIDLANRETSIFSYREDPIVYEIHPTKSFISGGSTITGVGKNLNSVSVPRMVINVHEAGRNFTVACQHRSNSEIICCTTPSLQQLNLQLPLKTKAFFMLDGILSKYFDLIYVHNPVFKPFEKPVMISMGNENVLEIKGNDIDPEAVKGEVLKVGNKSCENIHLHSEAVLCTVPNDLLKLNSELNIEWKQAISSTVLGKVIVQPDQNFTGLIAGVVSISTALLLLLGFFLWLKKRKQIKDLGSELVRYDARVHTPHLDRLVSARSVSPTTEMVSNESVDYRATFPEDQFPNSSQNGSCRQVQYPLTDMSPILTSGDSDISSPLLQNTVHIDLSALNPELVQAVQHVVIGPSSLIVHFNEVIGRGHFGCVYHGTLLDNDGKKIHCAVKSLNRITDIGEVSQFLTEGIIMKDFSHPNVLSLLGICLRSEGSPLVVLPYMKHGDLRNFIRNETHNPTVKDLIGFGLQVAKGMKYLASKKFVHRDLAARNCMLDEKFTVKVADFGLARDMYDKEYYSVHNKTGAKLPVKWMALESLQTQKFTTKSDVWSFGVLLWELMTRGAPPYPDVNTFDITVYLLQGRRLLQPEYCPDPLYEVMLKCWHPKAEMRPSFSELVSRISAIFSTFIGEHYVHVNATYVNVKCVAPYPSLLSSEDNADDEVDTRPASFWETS

Sequence of human Met-Fc chimera (human) (P08581 25-932, change not shown): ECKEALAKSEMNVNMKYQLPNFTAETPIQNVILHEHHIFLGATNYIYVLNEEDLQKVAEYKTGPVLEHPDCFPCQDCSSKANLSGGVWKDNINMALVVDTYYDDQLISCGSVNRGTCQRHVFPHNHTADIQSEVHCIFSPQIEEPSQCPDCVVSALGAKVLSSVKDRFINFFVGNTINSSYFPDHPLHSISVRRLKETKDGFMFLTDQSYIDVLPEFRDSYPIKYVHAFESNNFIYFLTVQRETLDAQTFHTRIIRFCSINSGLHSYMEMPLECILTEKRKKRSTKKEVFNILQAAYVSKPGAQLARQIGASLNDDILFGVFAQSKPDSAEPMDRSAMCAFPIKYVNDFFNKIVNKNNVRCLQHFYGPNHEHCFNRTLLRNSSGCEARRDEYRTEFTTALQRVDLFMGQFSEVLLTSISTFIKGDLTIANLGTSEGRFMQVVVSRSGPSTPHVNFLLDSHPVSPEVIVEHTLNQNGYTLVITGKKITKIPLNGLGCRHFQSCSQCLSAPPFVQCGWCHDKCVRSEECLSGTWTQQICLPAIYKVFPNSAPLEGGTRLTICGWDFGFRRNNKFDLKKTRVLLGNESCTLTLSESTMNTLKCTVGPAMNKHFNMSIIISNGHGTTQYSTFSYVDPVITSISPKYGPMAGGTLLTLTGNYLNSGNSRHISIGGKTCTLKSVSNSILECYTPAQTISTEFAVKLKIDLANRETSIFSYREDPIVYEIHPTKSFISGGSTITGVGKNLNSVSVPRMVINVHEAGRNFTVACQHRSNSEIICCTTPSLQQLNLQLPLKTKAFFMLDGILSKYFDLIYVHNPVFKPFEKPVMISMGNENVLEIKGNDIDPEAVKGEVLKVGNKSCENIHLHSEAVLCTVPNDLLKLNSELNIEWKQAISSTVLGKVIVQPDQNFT

Row | Substance | Kd [1] [nM] | percentage of GTL-16 cells in S phase (EdU), 1 uM antibody [2] [%] | reduction of proliferating GTL-16 cells versus control (EdU), 1 uM antibody [2] [%]
1 | chOA-DN30 | 0.319 |  | 
2 | chOA-DN30 (antibody) |  | 15 | 52
